This passage reports percentage shift into gate results from patent US20090053227A1.

This experiment has as its target Kv3.2a (potassium channel Kv3.2a, KCNC2 transcript variant 1) (human) (UniProt Q96PR1). The experiment is described as follows: flow cytometry on unpermeabilized Kv3.2a-CHO 1A5 cells. Background: A flow cytometer gives signals particle by particle.
Chain of UniProt Q96PR1 (Q96PR1 other isoform, or with tags, fused parts or gaps mutant): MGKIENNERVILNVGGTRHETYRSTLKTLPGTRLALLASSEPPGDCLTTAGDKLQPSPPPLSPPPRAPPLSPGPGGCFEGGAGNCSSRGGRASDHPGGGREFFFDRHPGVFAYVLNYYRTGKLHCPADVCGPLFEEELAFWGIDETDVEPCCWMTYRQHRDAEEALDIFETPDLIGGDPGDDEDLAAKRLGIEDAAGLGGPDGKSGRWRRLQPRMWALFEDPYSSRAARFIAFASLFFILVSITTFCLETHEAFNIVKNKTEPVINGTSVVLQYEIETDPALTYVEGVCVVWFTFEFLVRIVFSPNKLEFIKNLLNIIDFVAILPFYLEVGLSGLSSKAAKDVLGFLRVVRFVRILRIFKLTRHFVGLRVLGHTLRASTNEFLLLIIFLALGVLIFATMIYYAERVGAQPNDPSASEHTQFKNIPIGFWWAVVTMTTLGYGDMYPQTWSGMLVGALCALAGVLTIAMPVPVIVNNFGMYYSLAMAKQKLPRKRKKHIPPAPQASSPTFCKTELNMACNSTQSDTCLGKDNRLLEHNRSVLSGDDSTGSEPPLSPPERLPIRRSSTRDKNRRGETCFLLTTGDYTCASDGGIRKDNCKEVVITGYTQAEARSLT

Take Neg control: the percentage shift into gate was determined as 0.01%.
